# Laboratory results reported in the supplement of paper PMC9112550, “Optimization of the antimicrobial peptide Bac7 by deep mutational scanning” (BMC Biology, 2022).
# Tested on: Escherichia coli TOP10
# Test: shrunken log2 fold change of peptide-encoding DNA abundance (4.5 h post-induction vs induction); higher = less antimicrobial activity (less host growth inhibition)
# Settings: time post-induction: 4.5 h; library: site-saturation at positions 5, 18, 19, 20
# 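Also: peptides expressed intracellularly from a pBAD plasmid library in pooled LB shake-flask culture, induced with 0.3% L-arabinose, DNA abundance read by NGS, three biological replicates, DESeq2 with apeglm shrinkage.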
row,Sequence,shrunken log2 fold change
1,RRIRVRPPRLPRPRPRPQDNPRP,-1.05
2,RRIRWRPPRLPRPRPRPVQNPRP,0.316
3,RRIRARPPRLPRPRPRPAAAPRP,1.11
4,RRIRWRPPRLPRPRPRPPHHPRP,0.214
5,RRIRLRPPRLPRPRPRPMIMPRP,-0.159
6,RRIRVRPPRLPRPRPRPTFKPRP,-0.152
7,RRIRPRPPRLPRPRPRPQVLPRP,-0.208
8,RRIRYRPPRLPRPRPRPSFHPRP,-1.01
9,RRIRDRPPRLPRPRPRPGHVPRP,-0.0651
10,RRIRKRPPRLPRPRPRPFRQPRP,-0.0695
11,RRIRQRPPRLPRPRPRPAHEPRP,0.185
12,RRIRPRPPRLPRPRPRPKLAPRP,0.405
13,RRIRNRPPRLPRPRPRPCVAPRP,-0.23
14,RRIRVRPPRLPRPRPRPYLDPRP,0.0545
15,RRIRGRPPRLPRPRPRPGSMPRP,0.305
16,RRIRPRPPRLPRPRPRPLIGPRP,0.009
17,RRIRPRPPRLPRPRPRPYREPRP,-0.073
18,RRIRLRPPRLPRPRPRPMYPPRP,-0.0826
19,RRIRPRPPRLPRPRPRPCWIPRP,-0.456
20,RRIRNRPPRLPRPRPRPSMQPRP,-0.152
21,RRIRMRPPRLPRPRPRPFYAPRP,-0.47
22,RRIRTRPPRLPRPRPRPFGPPRP,0.204

row,Sequence,shrunken log2 fold change
1,RRIRGRPPRLPRPRPRPNSLPRP,0.271
2,RRIRIRPPRLPRPRPRPWRFPRP,-0.105
3,RRIRPRPPRLPRPRPRPNADPRP,0.0878
4,RRIRARPPRLPRPRPRPAMDPRP,0.568
5,RRIRDRPPRLPRPRPRPVFSPRP,0.111
6,RRIRDRPPRLPRPRPRPAHRPRP,-0.0802
7,RRIRVRPPRLPRPRPRPMSIPRP,-0.306
8,RRIRVRPPRLPRPRPRPQQYPRP,-0.258
9,RRIRWRPPRLPRPRPRPHLEPRP,-0.16
10,RRIRNRPPRLPRPRPRPFYIPRP,-0.51
11,RRIRQRPPRLPRPRPRPMTWPRP,-0.0225
12,RRIRWRPPRLPRPRPRPGCMPRP,0.464
13,RRIRKRPPRLPRPRPRPNKIPRP,0.0339
14,RRIRYRPPRLPRPRPRPWMDPRP,-0.159
15,RRIRSRPPRLPRPRPRPPNTPRP,0.158
16,RRIRGRPPRLPRPRPRPSELPRP,0.404
17,RRIRDRPPRLPRPRPRPLGPPRP,0.191
18,RRIRTRPPRLPRPRPRPPFLPRP,0.207
19,RRIRCRPPRLPRPRPRPAKVPRP,-0.243
20,RRIRDRPPRLPRPRPRPPMYPRP,-0.405
21,RRIRFRPPRLPRPRPRPYETPRP,-0.185
22,RRIRYRPPRLPRPRPRPKLCPRP,-0.0301

row,Sequence,shrunken log2 fold change
1,RRIRERPPRLPRPRPRPERHPRP,-0.152
2,RRIRQRPPRLPRPRPRPPQKPRP,-0.167
3,RRIRYRPPRLPRPRPRPHCVPRP,-0.0324
4,RRIRRRPPRLPRPRPRPCLTPRP,0.0744
5,RRIRFRPPRLPRPRPRPVKSPRP,-0.159
6,RRIRVRPPRLPRPRPRPIGLPRP,-0.0479
7,RRIRVRPPRLPRPRPRPWQIPRP,0.00686
8,RRIRFRPPRLPRPRPRPVDHPRP,-0.179
9,RRIRRRPPRLPRPRPRPQGQPRP,-0.0135
10,RRIRKRPPRLPRPRPRPAAVPRP,0.188
11,RRIRLRPPRLPRPRPRPMWIPRP,-0.199
12,RRIRLRPPRLPRPRPRPGLTPRP,-0.00899
13,RRIRVRPPRLPRPRPRPSTAPRP,-0.0759
14,RRIRQRPPRLPRPRPRPDHPPRP,-0.0816
15,RRIRVRPPRLPRPRPRPPERPRP,0.257
16,RRIRRRPPRLPRPRPRPARIPRP,0.0165
17,RRIRQRPPRLPRPRPRPSVEPRP,0.218
18,RRIRFRPPRLPRPRPRPVFFPRP,0.00921
19,RRIRGRPPRLPRPRPRPFKCPRP,-0.307
20,RRIRARPPRLPRPRPRPRFCPRP,0.527
21,RRIRPRPPRLPRPRPRPEMTPRP,-0.0182
22,RRIRRRPPRLPRPRPRPECDPRP,0.889

row,Sequence,shrunken log2 fold change
1,RRIRHRPPRLPRPRPRPNIQPRP,-0.141
2,RRIRTRPPRLPRPRPRPMHRPRP,-0.142
3,RRIRHRPPRLPRPRPRPHGCPRP,-0.0438
4,RRIRDRPPRLPRPRPRPGWLPRP,0.127
5,RRIRARPPRLPRPRPRPCRFPRP,0.0212
6,RRIRSRPPRLPRPRPRPHLIPRP,-0.303
7,RRIRYRPPRLPRPRPRPRRGPRP,0.114
8,RRIRARPPRLPRPRPRPWAWPRP,0.239
9,RRIRFRPPRLPRPRPRPHTAPRP,-0.337
10,RRIRFRPPRLPRPRPRPLQNPRP,0.0294
11,RRIRERPPRLPRPRPRPFLDPRP,-0.318
12,RRIRTRPPRLPRPRPRPSYSPRP,-0.316
13,RRIRIRPPRLPRPRPRPLVRPRP,0.0548
14,RRIRMRPPRLPRPRPRPQPYPRP,-0.00544
15,RRIRTRPPRLPRPRPRPLQEPRP,0.0814
16,RRIRYRPPRLPRPRPRPSPEPRP,-0.458
17,RRIRRRPPRLPRPRPRPGHRPRP,0.192
18,RRIRSRPPRLPRPRPRPSSSPRP,-0.353
19,RRIRWRPPRLPRPRPRPPVRPRP,0.108
20,RRIRWRPPRLPRPRPRPLFTPRP,-0.137
21,RRIRARPPRLPRPRPRPEFIPRP,-0.189
22,RRIRHRPPRLPRPRPRPQCSPRP,-0.0894

row,Sequence,shrunken log2 fold change
1,RRIRMRPPRLPRPRPRPEARPRP,1.76
2,RRIRHRPPRLPRPRPRPCYNPRP,-0.427
3,RRIRIRPPRLPRPRPRPAYQPRP,-0.76
4,RRIRYRPPRLPRPRPRPWKDPRP,-0.0122
5,RRIRTRPPRLPRPRPRPHTNPRP,0.0124
6,RRIRRRPPRLPRPRPRPWMWPRP,0.0918
7,RRIRARPPRLPRPRPRPDCRPRP,0.0473
8,RRIRNRPPRLPRPRPRPCVRPRP,-0.109
9,RRIRQRPPRLPRPRPRPWEAPRP,-0.00204
10,RRIRNRPPRLPRPRPRPQQIPRP,-0.23
11,RRIRDRPPRLPRPRPRPTMQPRP,0.625
12,RRIRSRPPRLPRPRPRPYFMPRP,-0.848
13,RRIRDRPPRLPRPRPRPRLIPRP,-0.189
14,RRIRHRPPRLPRPRPRPSNDPRP,-0.849
15,RRIRRRPPRLPRPRPRPPMIPRP,0.0196
16,RRIRPRPPRLPRPRPRPYRAPRP,-0.329
17,RRIRWRPPRLPRPRPRPIGLPRP,0.0952
18,RRIRPRPPRLPRPRPRPCYTPRP,-0.531
19,RRIRQRPPRLPRPRPRPEARPRP,-0.00982
20,RRIRERPPRLPRPRPRPPCFPRP,-0.0819
21,RRIRARPPRLPRPRPRPTYRPRP,0.0376
